According to the DeepSol protein solubility set:

Assay: soluble on expression in E. coli; label from the status in PepcDB or PDB records

| Sequence | soluble on expression in E. coli |
| --- | --- |
| SSNEHGPVKRSSQSTLERSEQQIRAASSLEELLRITHSEDWKLWRCRLRLKSFTSMDSRSASHRSTRFAATFYDIETLKVIDEEWQRTQCSPRETCVEVASELGKSTNTFFKPPCVNVFRCGGCCNEESLICMNTSTSYISKQLFEISVPLTSVPELVPVKVANHTGCKCLPTAPRHPYSIIRRSIQIPEEDRCSHSKKLCPIDMLWDSNKCKCVLQEENPLAGTEDHSHLQEPALCGPHMMFDEDRCECVCKTPCPKDLIQHPKNCSCFECKESLETCCQKHKLFHPDTCSCEDRCPFHTRPCASGKTACAKHCRFPKEKRAAQGPHSRKNP | soluble |
| MEKSGGRIVMDEIRSFEKAHLFDLGHPLLNRIADSFVKAAGVSFDSNNVGPPSEITGNKKHRFPNLRGESSKSLDALVKNTGKESLQWGLAAGLYSGITYGMTEVRGGAHDWRNSAVAGALTGAAMAMTTSERTSHEQVVQSALTGAAISTAANLLSSVF | soluble |
| MKSIVEKLNLTKYQQLVILNRPQGEYLSEFASAAQQLPSEPVELIFAFVKTMAEFQEIVSMVIEGQHLVENGLLYVAYPKKGNKMYPTFVHRDEIFPTLQVNEADGYIKGSTLKFNRMVSLDETFTVVGMKNVLKKLAKNQTSSAVGDYVQYLPEIEALVQTEPAAAATFAALTPGYQKEWARYVFSAKRAETRKKRQTEMLVILKEGYKTKALYQQRKK | not soluble |
| MTSIEPTHTGKKVIVGMSGGVDSSVSAYLLMQQGYQVEGLFMKNWEEDDNDEYCAAAEDLKDAQAVCDKLGIKLHTVNFAAEYWDNVFEYFLAEYKAGRTPNPDIMCNKEIKFKAFLEFADDILDADYIAMGHYVRRRDNEDGTTQMLRGVDNNKDQSYFLYTLSHEQVARSLFPVGELEKHEVREIAKQMGLITHDKKDSTGICFIGERKFTEFLGNYLPAQPGNIETADGEVIGTHQGLMYHTLGQRKGLGIGGMKNSNDDPWYVVDKDLKRNVLVVGQGGHHPRLMSNGMLVNQLHWVDRKGPINGSQIVVKTRYRQQDIPCTLTYLDDNTLKVVFDEPVAAVTPGQSAVFYDGEVCLGGGIIDQLIRGLEHHHHHH | soluble |
| MSSVVNAAYAEYNGKEKGDQEDPRVLIPQLCRLFYELGWVTGTGGGISLRHGEHIYIAPSGVQKERIQPEDLFVCDIDEKDISCPPPQKKLKKSQCTPPFMNAYTMRGAQAVIHTHSKSAVMATLLFPGKEFRITHQEMIKGIRKGNSGTNFRYDDTLVVPIIENTPEEKDLKERMARAMDMYPDSCAVLVRRHGVYVWGETWEKAKTMCECYDYLFDIAVQMKQSGLDPSAFPTEEKGIV | not soluble |
| MTTVLLDSHVAYWWSAEPQRLSMAASQAIEHADELAVAAISWFELAWLAEQERIQLAIPVLSWLQQLAEHVRTVGITPSVAATAVALPSSFPGDPADRLIYATAIEHGWRLVTKDRRLRSHRHPRPVTVW | soluble |
| SEAIQTLLDRKLPDEELEQINQACLSVKGVLGVHQLRTRMSGPTRFIQLHLELDDNLRLIEAHYIADKVEDNLLALFPEADVLIHQDPLSVVFGPEKEQKAQDW | not soluble |
| MSLKIKSIKAITLSMPFSHGGKKVIFHGKEWKSLEFNLVKVETDKGIIGWGEAFGYTSWKAVKIAIEDMVAPLLVGKDMTNIPELILILQKSLHLFGRYGITMFAISGVEIALWDALGKEKNKPIHELLGKKNKDLFKAYSSLFRYGDPKIVEQKCKQSLDDGYQAIKLHEIENNCIEAGRKGTGNLPLMLDTNCPWTYEETLAKKNFLQEMRLTWLEEPIYPPEDYQTLAKLKKELDIPIACGENACTEFEFKSIIDQNAVTYVQPSVIKVGGIYEMFKIIQHAEKNNILVMPHTAYFGPGFLATLQLASLMKNETYIERFYLDIDQEFYPNFKRALNGKYKLPSGPGLGIDLDYKKLSKYEIEGHHHHHH | soluble |
| MGSDKIHHHHHHRTKDQYYELRDFALGTSVRIVVSSQKINPRTIAEAILEDMKRITYKFSFTDERSVVKKINDHPNEWVEVDEETYSLIKAACAFAELTDGAFDPTVGRLLELWGFTGNYENLRVPSREEIEEALKHTGYKNVLFDDKNMRVMVKNGVKIDLGGIAKGYALDRARQIALSFDENATGFVEAGGDVRIIGPKFGKYPWVIGVKDPRGDDVIDYIYLKSGAVATSGDYERYFVVDGVRYHHILDPSTGYPARGVWSVTIIAEDATTADALSTAGFVMAGKDWRKVVLDFPNMGAHLLIVLEGGAIERSETFKLFERE | soluble |
| MGSDKIHHHHHHMSALYQALPAVDKLLKTPQGEQLVAEFGHSATVNMCRDLLQQAREHIKRHENLPHFLQNTDATFQHLKEQLLLQQQVNIKTVHNLTGTVLHTNLGRALWSPAAQQAALDAMQGNVALEYDLSAGERSHRDNYISALMQQLTGAEAACVVNNNAAAVLLMLATFAQGKEVIISRGELIEIGGAFRIPDIMAQAGCKLVEVGTTNRTHLKDYRNAINENTAFLMKVHSSNYQICGFTHSVDEQELADLGKEFGIPVITDLGSGALMDLKQFGLPEEPTVQEKLQHGVDLISFSGDKLLGGPQAGIIVGKKALIQQLQAHPLKRVLRCDKVTLAGLEATFRLYLQPEKITEKLTALLLLTQPMERLQAQAEQLKVRLENRLNTNYVIAIEPSEAQIGSGSQPLARIPSVAVTIAPASEKTPAKTTALFARLLALPQPVIGRIERDKIWLDLHSLASLDRLLNSLETL | not soluble |
| MNEFMEPLDRISAETLGHYERNAEAFFEGTRDHDVSQNIAALLSHIRTEPPFTVLDFGCGPGRDLKAFTELGHRAVGLDGAFRFVEMARDYSGCEVWHQDFLKLDLPEEHFDGIFANATLFHVPSRELPRVLGELRAALKPEGVLFASNPRGRNEEGWNRGRYGVYHDLDTWRRFLTSAGFLELEHYYRPAGLPRDQQPWLASVWRRTLEHHHHHH | soluble |
| MGSDKIHHHHHHMAVQDLLSQDEIDALLHGVDDGMVQTDIASEPGSVKSYDLTSQDRIVRGRMPTLEMINERFARYTRISMFNLLRRSADVAVGGVQVMKFGEYVHSLYVPTSLNLAKIKPLRGTALFILDAKLVFKLVDNFFGGDGRHAKIEGREFTPTELRVVRMVLDQAFIDLKEAWQAIMEVNFEYINSEVNPAMANIVGPSEAVVISTFHIELDGGGGDLHVTMPYSMIEPIREMLDAGFQSDLDDQDERWVNALKEDVLDVNVPLTTTIAQRQLPLRDILHMRPGDVIPVELSDTLVLRANGVPSFKVKLGSHKGKMALQVIEPIARR | not soluble |
| MLRREFGPKYTAKINEAEENWQARAEAIKKGKKQNTWDLFEERGYVKDTAGTKEHIAELMRTRRIGAYVGIDPTAPSLHVGHLLPLMPLFWMYLEGYKAFTLIGGSTAKIGDPTGRLKSRDHLSSSDATMNMTKIHYQLKKLWENVDTQMRARGYEADWARKRGIVNNNHWWNKQPMLEVLRRVGHALRIGPMLSRDTVKNKMTQGDGVSFAEFTYPIMQGWDWFELFYQQGVQMQIGGSDQYGNIISGLEVVKAARESEPDPQERKYVTPKTALDECVGFTVPLLTDSSGAKFGKSAGNAIWLDPYQTSVFDFYGYFVRRSDQEVENLLKLFTFMPISEITKTMEEHIKDPSKRVAQHTLAREVVTLVHGKQEASAAEDQHRMMYTGQMTI | soluble |
| MKMNLSTPFPLGATLDAEGCNFAIYAPANRDILLALFHADGSYETHQLEHEYAGVKHTHISGIHAGQKYGYLIQLNDELHYISDPYARALEGPLHYAPPFDSHKSFDLPKCVVTDTHFDWQNVAKPRIARDEMVLFETHVKGLTQLNPDVEKALRGKYLGLVSQPMLDFYRQQNINTLQLLPIAACMHEPHLLESGKVNYWGYNPYVFMAPDPRYASKDAVNELKTTIRELHRNGIQVILDVVYNHTAEGGTNGPVFNLKALDPNYYLHHGDHYANYTGCGNTVDLSNQAALNLVMDTLRCWVTEYQIDGFRFDLAATLGRRGDEFSKEAAFFKAVAQDPVLREVKLIAEPWDIGPNGYQVGNFPFGWNETNDKLRDITRSFWRGDLGFLKEFATRLMGSRDLYSAANWPYKLTVNYITYHDGFTLQDLVSYKHKHNEANGEQNRDGHGDNRSDNYGFEGDTDSIVIRATRERQKRNFMASLLFAFGIPHILTADVLSHTQKGNNNAYCQDNDISWLNWENNETKQDFREWLAGMVAARQTYMVPFIRAFSGENRNNNRIAWRRVDGKPMEMDDWNRLSSVALHIGIGSDGPEMLYLINQTNAPARFVLPKDRQQDWRLICDTNMRHAQHGHAEGEVLQLPVSMSILHYQPKKKSA | soluble |
